Substrate in the series: O=c1ccn([C@@H]2O[C@H](COP(=O)(O)OP(=O)(O)O[C@H]3OC[C@@H](O)[C@H](O)[C@H]3O)[C@@H](O)[C@H]2O)c(=O)[nH]1
Description: cells, lysate or membranes. As to conditions: Pichia-expressed; conditions not stated.

A word on the Km: it is the substrate concentration at which the rate is half of its maximum.

B1: Pichia-expressed form of XT-I (Homo sapiens) (protein)
chain: PKCDISGKEAISALSRAKSKHCRQEIGETYCRHKLGLLMPEKVTRFCPLEGKANKNVQWDEDSVEYMPANPVRIAFVLVVHGRASRQLQRMFKAIYHKDHFYYIHVDKRSNYLHRQVLQVSRQYSNVRVTPWRMATIWGGASLLSTYLQSMRDLLEMTDWPWDFFINLSAADYPIRTNDQLVAFLSRYRDMNFLKSHGRDNARFIRKQGLDRLFLECDAHMWRLGDRRIPEGIAVDGGSDWFLLNRRFVEYVTFSTDDLVTKMKQFYSYTLLPAESFFHTVLENSPHCDTMVDNNLRITNWNRKLGCKCQYKHIVDWCGCSPNDFKPQDFHRFQQTARPTFFARKFEAVVNQEIIGQLDYYLYGNYPAGTPGLRSYWENVYDEPDGIHSLSDVTLTLYHSFARLGLRRAETSLHTDGENSCRYYPMGHPASVHLYFLADRFQGFLIKHHATNLAVSKLETLETWVMPKKVFKIASPPSDFGRLQFSEVGTDWDAKERLFRNFGGLLGPMDEPVGMQKWGKGPNVTVTVIWVDPVNVIAATYDILIESTAEFTHYKPPLNLPLRPGVWTVKILHHWVPVAETKFLVAPLTFSNRQPIKPEEALKLHNGPLRNAYMEQSFQSLNPVLSLPINPAQVEQARRNAASTGTALEGWLDSLVGGMWTAMDICATGPTACPVMQTCSQTAWSSFSPDPKSELGAVKPDGRLR
B1: the Km turned out to be 300 µM.

(Values after PMC2850172.)
